What was measured:
[1] = tested on: DNase I; experiment: DNase I digestion monitored by TLC; assay type: in vitro ADME; settings: for DNase I digestion after six hours (TLC, FIG. 6): model oligonucleotide
Text: Nucleases and proteases are common and result in extremely short half-life for biomolecules not protected from the in vivo environment. In addition, carboxylesterases (CES) are known to be present in many cancerous tumor cells. Therefore, the ability of the biomolecule-polymer conjugates of the disclosure to withstand degradation in the presence of fetal calf serum (FCS) and either DNase I, or 51 nuclease is investigated, as well as the ability of carboxylesterase 1 to degrade the biomolecule-polymer conjugates and release the biomolecule.
Concentrations of treatments were as follows: FCS (30%), DNase I (30 units), 51 nuclease (10 units). Digestions were conducted at 37° C. and monitored by either thin layer chromatography or gel electrophoresis.

[2] = tested on: bacterial 16S ribosomal RNA gene; experiment: PCR amplification with 8F primer conjugates, gel electrophoresis; assay type: biochemical
Text: The retention and recovery of the original functionality of the biomolecule is a characteristic of the conjugates of the disclosure. In order to test the ability of an oligonucleotide-polymer conjugate of the disclosure to functionally bind its complementary sequence, PCR primers were utilized. The universal bacterial primers 8F (5′-[…]-3′, SEQ ID NO:2) and 1392R (5′-ACGGGCGGTGTGTACA-3′, SEQ ID NO:3) were used to amplify a portion of the bacterial 16S ribosomal RNA gene. The 8F primer conjugated to MPEG-550 networked with MPEG-550 were prepared according to Examples 7 and 9 above, and subjected to DNase I degradation studies.
The MPEG550 conjugate and the MPEG550-networked-conjugate were then treated with NH4OH to release the PCR primers from the MPEG550 via chemical degradation and PCR amplification was then performed. Each 50-μl PCR mixture contained 1 μl template DNA (either E. coli. or an environmental isolate belonging to the genus Streptomonospora), 2 U Taq DNA polymerase (Eppendorf), 1×Taq buffer, […] Mg(OAc)2, 1×Taq Master PCR Enhancer, each deoxynucleoside triphosphate at a concentration of 20 μM, and each primer at a concentration of 0.4 μM. The PCR conditions were 85° C. for 5 min, 30 cycles of 94° C. for 45 s, 55° C. for 1 min, and 72° C. for 90 s, with a final 7 min extension at 72° C.

## oligonucleotide-MPEG conjugate: model oligonucleotide of Example 1 (SEQ ID NO:1) conjugated to MPEG550 (methoxy-terminated PEG, MW 550) (TTTTATTTTATTTTATTTTA; DNA, backbone not given here; conjugated to MPEG550 via propargyl chloroformate chemistry, further chemistry not fully specified)
[1]; DNase I 30 units, 37° C., one hour, model oligonucleotide of Example 1
  DNase I digestion after one hour (TLC, FIG. 5): resistant to DNase I treatment
[1]; DNase I 30 units, 37° C.
  DNase I digestion after six hours (TLC, FIG. 6): remained intact
[1]; conjugate treated with NH4OH to cleave the L-X bond, then DNase I, 3 hours
  DNase I digestion after 3 hours following NH4OH treatment (TLC, FIG. 7): allowed for degradation by DNase I

## 5′-TTTTATTTTATTTTATTTTA-3′ (model oligonucleotide, sugar chemistry not given here, further chemistry not given here) [native model oligonucleotide, reference compound]
[1]; DNase I 30 units, 37° C.
  DNase I digestion after six hours (TLC, FIG. 6): completely digested

## MPEG550 conjugate: universal bacterial 8F PCR primer (SEQ ID NO:2) conjugated to MPEG-550 according to Example 7 (DNA AGAGTTTGATCCTGGCTCAG; primer conjugated to MPEG-550, position not given here)
[2]; conjugate cleaved in NH4OH for 15 minutes and 18 hours before PCR
  PCR amplification product after NH4OH treatment (1% agarose gel): yielded the appropriate size amplification product
[2]; each primer 0.4 μM, with 1392R primer, 30 cycles
  PCR amplification product (1% agarose gel): functional and yielded the appropriate size amplification product
[1]; 8F PCR primer conjugates, DNase I, one hour
  DNase I digestion after one hour (TLC, FIG. 9): resistant to nuclease degradation
